Source: the DeepSol protein solubility set

assay: soluble on expression in E. coli; label from the status in PepcDB or PDB records

With “MSSGKRRNPLGLSLPPTVNEQSESGEATAEEATATVPLEEQLKKLGLTEPQTQRLSEFLQVKEGIKELSEDMLQTEGELGHGNGGVVNKCVHRKTGVIMARKLVHLEIKPSVRQQIVKELAVLHKCNSPFIVGFYGAFVDNNDISICMEYMDGLSLDIVLKKVGRLPEKFVGRISVAVVRGLTYLKDEIKILHRDVKPSNMLVNSNGEIKLCDFGVSGMLIDSMANSFVGTRSYMAPERLTGSHYTISSDIWSFGLSLVELLIGRYPVPAPSQAEYATMFNVAENEIELADSLEEPNYHPPSNPASMAIFEMLDYIVNGPPPTLPKRFFTDEVIGFVSKCLRKLPSERATLKSLTADVFFTQYADHDDQGEFAVFVKGTINLPKLNP” as the sequence, how does the “soluble on expression in E. coli” value read?
Its value is “not soluble”.

For “MGSSPAPFADIGKKAKDLLNKDYIFDHKFTLTMLSATGTEFVATGLKKDDFFFGDISTLYKGQNTIVDLKIDSHSSVSTKVTLKNLLPSAKAVISFKIPDHKSGKLDVQYVHPHATLNSSIGLNPTPLLDLSATIGSQNVCLGGEVSFDTASSSLTKYNAGIGFNNQGVSAALILEDKGESLRATYVHTVNPTTSFGAELIRRFSNYNNSFTVGSSHSVDQFTVVKTRFSNSGKAGMVVQREWRPKSHITFSAEYDSKAVTSSPKLGLALALKP”, which “soluble on expression in E. coli” value is on record?
Its value is “soluble”.

Which “soluble on expression in E. coli” value does the source give for “MVMRGNKMRGDKKIFKKRVERFQELLKENNIDGAVIRTLSSFIYFTGTKWLRPSLLIPAEGEPRVLVVKGEAELFKERSWIEDVVEYQKAEELMLTVVKWIRENEMKRVGLEFGIERDAYLIFYKIFLRLNPTVEVVDILDLTMKLRMIKDEWELDNIRKAGKIALKGMRVAEEEIKPGRTELEIAAEVTRELMLNGSEDPKVYVSVTPRAHAEPFRDLKVPENGVVTVVIGTDWNHYYANMARTFIIGDPGERVKKAIEVKKEAIKLALEETKVGVPISTVEKKIEQFFKERGFGDYHLSGYTHGVGLLIEEPPIATIVVPQRAAKIQENMVLSIIHPPLMLPEGAIKYENTYIVKKDGLERVT” here?
The value was “soluble”.

With “ALYGNSSGGVINVTSQTGAQPPTVEASSYYGSFGTWHYGMKATGAVGDGSHAGDVDYTVSTNRFTTHGYRDHSGARKNLANARLGVRINDVSKLTLLLNSVDIKANDAGGLTADEWRDNPRQSPRGDQYNTRKNTRQTQAGLRYERQLSAQDDLSVMMYAGERETTQFQSIPRAPQLKPSHAGGVIDLTRHYQGIDTRLTHRGELLVPVTLTAGLDYENMSERRKGYENFVMVNGAPQYGEQGALRRNERNLMWNVDPYLQTQWQLTDKLSLDAGVRYSSVWFDSNDYYITPGNGDDSGDASYHKWLPAGSLKYALTDAWNVYLSAGRGFETPTINELSYRSDNQSGLNFGLKPSTNDTVEIGSKTRIGNGLFTAALFQTNTDNEIVVDSSSGGRTSYKNAGKTRRQGMELGLDQQFGESWRLKAAWTWLDATYRTNVCDDASCNGNRIPGIARNMGYASFGYQPEQGWYAGSDIRYMSDIMANDENTAKAPSWTVVGLTTGYKWSYGRMDMDLFGRIDNLFDREYVGSVIVNESNGRYYEPAPGRNYGIGLNLAWRFE” as the sequence, how does the “soluble on expression in E. coli” value read?
Its value is “not soluble”.

With “METNALDVNKQSWDQAAPRFFARNPLPEYGPLAPSEEELHLFGDVDRLKVLEIGCGSGHSLKYLDEKQAGELWGIDLSTKQIEAAQTVLKDSKAPVTLFESPMEVNPGLPTDYFDIVFSIYALGWTTNLTKTLENVYRYLKPGGSFIFSWEHPMYNRVRQHQHGLTVDKSYHEEGAYAHEAWSSPAIMQQYRLSTYLNHLIDHGFKVERVIEDVCLADAQKHTNGWYGYEKAQMIPTTLIIKCLKQLEHHHHHH” as the sequence, how does the “soluble on expression in E. coli” value read?
The value was “not soluble”.

With “MSLTAHRIGFLVWPGTKAMTLALAEEALRVAQRVHPEVVYELSFLQAELAEPAAVAGGWQLPGEPWTGRLEGLQKLFLLADEPPAAVAPALGSALKQLVRAGCSIGGLSAGVYPLAQLGLLDGYRAAVHWRWQDDFAERFPKVIATSHLFDWDRDRLTACGGMSVLDLLLAVLSRDHGAELAGAVSEELVVERIREGGERQRIPLQNRLGSSHPKLTQAVLLMEANIEEPLTTDEIAQHVCVSRRQLERIFKQYLNRVPSQYYLELRLNKARQMLMQTSKSIIQIGLSCGFSSGPHFSSAYRNFFGATPREDRNQRRSSSPFELSPVPAKGIITITTDPNSSSVDKLAAALEHHHHHH” as the sequence, how does the “soluble on expression in E. coli” value read?
The value was “soluble”.

With “MTKSKIIEIGPLVPAFEEEKIVILFGPTATNELREISVIHEFEAAPQSALSKGNTLQIGDQVYIIEEVGTEANKNLEELGHISIYFRSGQNEVLPGAIVVSPEVFPTLAIGDTIQ” as the sequence, how does the “soluble on expression in E. coli” value read?
Its value is “not soluble”.

With “MKVRADFAFEKVARDWFVRWSKGRSEKYAGQVMRNFERWVFPAIGNLDIRQVRTADVVGCLRVMEARGIVDTLRKTKNSLKMVFAFAVGSGMMEINPVAQIGSGVFERLEHHHHHH” as the sequence, how does the “soluble on expression in E. coli” value read?
The value was “soluble”.

Which “soluble on expression in E. coli” value does the source give for “MRARGRLLPRLLRTNIQSSRFLVSLGHTNDVMSSHLCSLCHLDHHPHPTPPSSSSSSSSLSLCAWLSCVCVCVCVYMHTTYHTGLSTYQCSILQPPPSPSLSTHTFLCVYCVLAPSSPPCIMVDTSSSAPASASPAITTSAAATTPVVILVVGMAGTGKTTLVHRMQHYAHTNGIRSYFINLDPAVTHTPYNVNIDIRDSVRYGEVMKNYRLGPNGAIMTSLNLFATKIHQVVSLLEKKEEMLDWIIVDTPGQIEVFTWSASGQLMADSFGAVFPTVLLFVADTVRCVSSPQTFVSTMLYSSGIMLKQQVPLVVVFNKTDVVSADSVIAWMRDNDALDEAVTNPHRSNRSRRAVSGEPGDGEDADWRGEGTRIGAAALGSQDALLANQGSGYAGTLAQSMSLFLHEFYEDLPYAAVSAASGAGMSELAASIERGKQQALEAKAERSAH” here?
Its value is “not soluble”.

With “MRVGLFTDSYFPQISGVATSIRTLALELEKLGHEVFIFTTTDPNADVDHERNIIRLQSIPFVSLAERKIVLKGVFAAYLIAKEYDLDIIHTQTEFGMGILGKMVAAQLRIPVIHTLHTKYEDYVYYIAKGRLIRPSMVKYIIRNFLRGTEAIICPSEMVLETVNSYGVTLPKRVIPTGIEIDRFKRDDIEPEETAKLRVELGLAENEIMLLSLSRIAAEKNIQAVIHALPDILEEFPVKLVIVGHGPYAENLKELVKELELTDKVVFTGPVENEKTAYYYKAADFFISASTSETQGLTYLEAMAAGTRVLAAKNPYLSELINDDEFGQLFIGDDDLAEVTKKAIRDLHPIDKDKFEKKLYEISAENFAKKVYLFYIDTIIEYNNLKSIEAERFPMKMEDTIRQMPVTVKRSLKREQIRAKYFARKASKLAKNLQSYVKIDKDKEQDLEHHHHHH” as the sequence, how does the “soluble on expression in E. coli” value read?
The value was “soluble”.

With “RDFSPVPWSQYFESMEDVEVENETGKDTFRVYKSGSEGPVLLLLHGGGHSALSWAVFTAAIISRVQCRIVALDLRSHGETKVKNPEDLSAETMAKDVGNVVEAMYGDLPPPIMLIGHSMGGAIAVHTASSNLVPSLLGLCMIDVVEGTAMDALNSMQNFLRGRPKTFKSLENAIEWSVKSGQIRNLESARVSMVGQVKQCEGITSPEGSKKDHPYTWRIELAKTEKYWDGWFRGLSNLFLSCPIPKLLLLAGVDRLDKDLTIGQMQGKFQMQVLPQCGHAVHEDAPDKVAEAVATFLIRHRFAEPIGGFQCVFPGC” as the sequence, how does the “soluble on expression in E. coli” value read?
The value was “soluble”.

For “MSLNGPLKIGYYKIGAAYRDGKGYDVDMVRELARRLGCPIANETELPRLRALKMLETGQIDVSASTLATPDRLQYAWIYQYNHAKNMVLLNPAIQARTLATLLEDPALRWGAIRGYHHGPSQDKLLEELNARHKVVIANDEDDLYKMLGNGVVTAVFAQPFSYGRWLRELPNPNQIVVLDLYPETDMVASGLALSKARFSREAAEKWHQELLKMYQDGSLYDIMRRYLNESAARQMMQKPIEEGHHHHHH”, which “soluble on expression in E. coli” value is on record?
The value was “soluble”.

With “MSLKIKALLLDIDGTMVFKGHAIPGAAEAIEAARMAGLQLRFLTNITGQLPSTIAEDLQRHGINVRAEEIHTASTSCARYLKSLGDVSCFFLMPESVNSMFEGIARDHVSPDVVVIGDIGESFDYACLNQAFGYLHKGARLVVPHKNLFWFDPRGVRLDCGAFILGLEAASGKQALVTGKPSPVFFTSVMDSLGVKPSQTMIIGDDLLTDIAAAQHLEVAHALVLTGKGASYTESDVPRPERLWPSIAELSRFLAQSGHNTEGHHHHHH” as the sequence, how does the “soluble on expression in E. coli” value read?
The value was “soluble”.

For “MGSDKIHHHHHHMSESHLYTYGIIDDNESLALNVDGVAGATRAYTVSYRSLSAVVSDIETTDPERTDAAVEAHNTVLQAVLEHDATRAVVPMSFGMAFKNARTLKGVLRGARRALRSTLTEIAGTVELGVKVLAPGDDTAVDTAAVRSDVTARLSALSVGETENDCFTDRLIINKSYLVEHDTRDAFDAAIDEIDAAHDDLTVRYTGPWPPYNFVDIHIGAEQAQQGGR”, which “soluble on expression in E. coli” value is on record?
The value was “not soluble”.

Which “soluble on expression in E. coli” value does the source give for “SLSLESLEWMAFDSFLLWRSEESIDARILLVEINQNDNYSLTSTISNSSFIGVIEKLQVYQPKVIGLEVDQHLLINSQEDKLAKIFQKYKNLIANEKILPLQVHSYLDLPNEQITFADQILDNDGKSRRSLLAINTSNGYKLSLAMELARIYLAEKNISLENSRLGKTKLPRFLPNSGGYIRADASGFQVLINFRSGNQRFRTLSGEDIKNGKFNPEWIRDRIVIIGITNTHNQGFIPTSAITSVKSASTQVNKLEIQAHAISQIISAVLDGRPLINTWNDG” here?
The value was “soluble”.

With “RLCKALYSFQARQDDELNLEKGDIVIIHEKKEEGWWFGSLNGKKGHFPAAYVEELPSNAGNTATKA” as the sequence, how does the “soluble on expression in E. coli” value read?
The value was “soluble”.

For “GPGSMTEHENTPRLELEAALGYSGNLPGSLVAHPDQQHLLYALGACIVIRDANDAESSEFFYGHNDKISCLTVSVSGRYVASGQVTHPGFQADVCIFDFAERRLIHRMLLHKVKVQALAFSLDEQYLASVGGPDDNTVVLWDVKTGRPLCGAPAHHTETKAIAFFNNNSEKLITGGVGSLLVWTVDLEQRKMNSVDINMGNMRRSVQTISIEKTDKYVYCGTTSGDVICAQLQQANVFKMQGPQKKLSGGILSTILTNTGDVLVGSGAGELQLLSKINLTVQNSATVNGGVTALALMGDNYYVGTKTSNLYFVNGGNFMTRLRLTCHSEAVQDVVFPHGFSSVFATCCDTDIRVWNANSCTELLRIEVSNRTCNCLQFSRDGSLIISGWSDGRIRAFGPQSGKLVFSVADAHKVEQGSRSHKVGGKVGVTSVCADNAGHRIITGGSDGLVRVWAIRGATCTLEASMKEHKAAVNAIVISHDDTECVTASDDGSCIVWDLTRYLRRNIMYRQTYFRALEYYVDDSQLITCGSDKCIVYWDSVDCHAIREVCGSRTAELNSLSLSPDGRFFVTGGNDRIVKVWDYDRGECIAVGLAHSCSITKVRVSPDGKKIVSVGDEGAVMVWNIAELAIEGL”, which “soluble on expression in E. coli” value is on record?
Its value is “not soluble”.

With “MALSDVKVRSAKPEAKAYKLTDGEGMVLLVHPNGSKYWRLRYRFGGKEKMLALGKYPEVSLADARARRDEARKLLANGVDPSENKKAVKVEQEQEAITFEVVARDWHASNQKWSASHSARVLKSLEDNLFTAIGKRNIAELKTRDLLVPIKAVESSGRLEVAARLQQRTTAIMRFAVQSGLIDYNPAQEIAGAVATAKRQHRAALELNRIPELLHRIDHYSGRPLTRLAVELTLLVFIRSSELRFARWSEIDFETAMWTIPGEREQLEGVKHSQRGSKMRTPHLVPLSRQALSILEKIKSMSGNRELIFVGDHDPRKPMSENTVNKALRVMGYDTKVEVCGHGFRTMACSSLIESGLWSRDAVERQMSHQERSSVRAAYIHKAEHLGERRLMFEVVNKNWPPS” as the sequence, how does the “soluble on expression in E. coli” value read?
The value was “not soluble”.

With “SSTQYSILFKQEHAHEDAIWTAAWGRSEKDGSETIVTGSLDDLVKVWKWSDEKLELQWTLEGHQLGVVSVNISQNGAIAASSSLDAHIRLWDLETGKQIKSMDAGPVDAWTVAFSPDSKYIATGSHLGKVNIFGVESGKKEHSLDTRGKFILSIAYSPDGKYLASGAIDGIINIFDIATGKLLHTLEGHAMPIRSLTFSPDSQLLVTASDDGYIKIYDVQHANLAGTLSGHGSWVLSVAFSPDDTHFVSSSSDKSIKVWDTSSRSCVNTFFDHQDQVWSVKYNPTGSKIVSAGDDRAIHIYDCPM” as the sequence, how does the “soluble on expression in E. coli” value read?
Its value is “soluble”.

Which “soluble on expression in E. coli” value does the source give for “MGKSDFLSPKAIANRIKSKGLQKLRWYCQMCQKQCRDENGFKCHCMSESHQRQLLLASENPQQFMDYFSEEFRNDFLELLRRRFGTKRVHNNIVYNEYISHREHIHMNATQWETLTDFTKWLGREGLCKVDETPKGWYIQYIDRDPETIRRQLELEKKKKQDLDDEEKTAKFIEEQVRRGLEGKEQETPVFTELS” here?
Its value is “soluble”.
